Tests used:
[1] = target: T1, mouse GPNMB endogenously expressed on B16F10 cells (mouse, UniProt Q99P91 23-574); test: FACS, B16F10 cells
T1 construct: whole, on cells; also called moGPNMB
T1 sequence (looked up): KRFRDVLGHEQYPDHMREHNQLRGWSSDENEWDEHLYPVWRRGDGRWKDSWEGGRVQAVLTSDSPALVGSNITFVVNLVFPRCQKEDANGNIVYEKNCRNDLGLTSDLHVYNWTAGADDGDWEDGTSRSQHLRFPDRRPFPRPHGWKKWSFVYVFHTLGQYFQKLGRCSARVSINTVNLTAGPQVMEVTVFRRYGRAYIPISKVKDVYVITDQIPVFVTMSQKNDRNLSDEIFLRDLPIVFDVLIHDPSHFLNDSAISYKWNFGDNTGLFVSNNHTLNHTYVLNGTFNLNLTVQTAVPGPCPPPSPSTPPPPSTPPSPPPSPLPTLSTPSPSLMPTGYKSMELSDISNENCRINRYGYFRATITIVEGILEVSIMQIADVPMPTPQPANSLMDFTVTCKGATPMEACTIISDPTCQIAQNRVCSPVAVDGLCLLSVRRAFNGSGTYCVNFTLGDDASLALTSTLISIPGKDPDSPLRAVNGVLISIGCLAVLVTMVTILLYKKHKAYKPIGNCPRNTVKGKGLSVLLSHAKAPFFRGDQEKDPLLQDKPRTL
In short: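 Flow cytometry MFI after two-step staining on ice: anti-GPNMB antibody for 30 min, then APC-conjugated anti-human IgG (1 μg/ml) for 30 min. Buffer was PBS with 2% FBS and 2 mM EDTA; 100,000 cells per well.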

[2] = target: T2, full-length untagged human GPNMB expressed on cells (human, UniProt Q14956 23-572); test: cell-based or functional assay
T2 sequence: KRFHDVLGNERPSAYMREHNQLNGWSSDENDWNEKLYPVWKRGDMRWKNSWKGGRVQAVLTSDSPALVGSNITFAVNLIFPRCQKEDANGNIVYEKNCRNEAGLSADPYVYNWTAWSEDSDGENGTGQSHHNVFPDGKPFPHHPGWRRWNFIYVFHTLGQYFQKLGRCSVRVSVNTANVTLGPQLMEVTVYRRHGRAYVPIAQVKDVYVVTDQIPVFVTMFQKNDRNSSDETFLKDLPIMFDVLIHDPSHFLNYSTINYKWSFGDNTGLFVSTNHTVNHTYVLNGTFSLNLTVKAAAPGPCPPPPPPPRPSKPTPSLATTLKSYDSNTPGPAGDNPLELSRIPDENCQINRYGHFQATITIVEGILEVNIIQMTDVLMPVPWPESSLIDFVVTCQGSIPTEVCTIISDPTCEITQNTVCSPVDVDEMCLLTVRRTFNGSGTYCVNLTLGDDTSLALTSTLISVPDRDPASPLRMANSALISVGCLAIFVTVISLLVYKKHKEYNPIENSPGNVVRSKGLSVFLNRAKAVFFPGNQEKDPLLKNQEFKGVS

[3] = target: T3, soluble cynomolgus GPNMB (recombinant extracellular domain) (cynomolgus, UniProt Q14956 23-499 (human entry), limits assumed); test: SPR Carterra, Ab immobilized
T3 chain: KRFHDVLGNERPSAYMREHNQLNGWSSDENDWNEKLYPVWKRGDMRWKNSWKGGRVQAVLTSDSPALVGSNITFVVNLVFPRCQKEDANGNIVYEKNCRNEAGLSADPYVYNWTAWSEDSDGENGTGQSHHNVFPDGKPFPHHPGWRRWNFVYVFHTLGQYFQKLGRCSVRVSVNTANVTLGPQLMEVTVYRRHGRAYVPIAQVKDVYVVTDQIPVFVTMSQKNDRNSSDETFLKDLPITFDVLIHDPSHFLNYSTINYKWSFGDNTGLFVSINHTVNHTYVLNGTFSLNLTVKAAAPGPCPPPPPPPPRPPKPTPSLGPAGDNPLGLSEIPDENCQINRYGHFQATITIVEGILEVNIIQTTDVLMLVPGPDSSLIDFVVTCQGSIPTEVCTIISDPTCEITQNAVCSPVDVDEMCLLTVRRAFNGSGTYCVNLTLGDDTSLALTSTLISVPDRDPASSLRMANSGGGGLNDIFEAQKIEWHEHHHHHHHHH
In short: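 Analyte series of GPNMB extracellular domain (2.5, 7.4, 22, 67, 200, 600 nM) flowed in ascending order, no regeneration, over IgG1 antibodies EDC/NHS-immobilized on an HC200M array. HBS-EP+ plus 0.5 mg/ml BSA as running buffer, two blanks per series. Affinity estimated via high-throughput kinetic fitting.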

[4] = target: T1, mouse GPNMB endogenously expressed on …; test: FACS on B16F10 mouse melanoma cells (endogenous mouse GPNMB); single antibody concentration (not given); APC anti-human IgG secondary; MFI as fold over background
Procedure: Recombinant anti-GPNMB antibodies of the present disclosure were examined for their ability to bind human and/or mouse GPNMB expressed on Freestyle293-huGPNMB+ or B16F10 cells, respectively. B16F10 cells are a murine melanoma cell line from a C57BL/6J mouse that endogenously express high levels of mouse GPNMB. The antibodies were also tested for their ability to bind to a human macrophage cell line (U937 cells) engineered to express human GPNMB. Cells were harvested, plated at 100,000 cells/well in a 96-well round bottom plate, and incubated in 100 μl FACS buffer (PBS containing 2% FBS, 2 mM EDTA) containing anti-GPNMB monoclonal antibodies of the present disclosure for 30 minutes on ice. Cells were then washed and incubated in 100 ul FACS buffer containing 1 μg/ml APC-conjugated anti-human IgG secondary antibody for 30 minutes in ice. Cells were washed twice in cold FACS buffer and acquired on a BD FACS Canto. Data analysis and calculation of MFI values was performed with FlowJo (TreeStar) software version 10.0.7. […]

MFI fold over background [1]: 1 fold | CD40 (FoB) [2]: 1.44 FoB | CD80 (FoB) [2]: 1.38 FoB | GCase (FoB) [2]: 1.58 FoB | PDL1 (FoB) [2]: 1.61 FoB | Kd [3]: 97.9 nM | koff [3]: 0.0021 s⁻¹ | kon [3]: 21000 M⁻¹ s⁻¹ | binding result [4]: no binding
B1: anti-GPNMB antibody GPN-06 (antibody, human IgG1, V domains shown)
VH: QVQLQQSGAELVKPGASVKLSCKASGYTFTNYYMYWVKQRPGQGLEWIGEINTRNGGTNFNEKFKSKATLTVDKSSSTAYMQLSSLTSEDSAVYYCTTGFAYWGQGTLVTVSA
VL: DIQMTQSPASLSASVGETVTITCRASENIYSYLVWYQQNQGKSPQLLVYNAKTLAEGVPSRFSGSGSGTQFSLKINSLQPEDFGTYYCQHHYGTPFTFGSGTKLEIK
notes: chimeric

Reference: US20250270343A1 (Alector, published 2025)
